Measurements as given in patent publication US20200282012A1 (published 2020).
One block for each binder: values may come before it.

Assays:
[1] = molecular target: T1, human complement component C3 (human, UniProt P01024 23-1663); experiment: cell-based or functional assay
[2] = molecular target: T1, human complement component C3; experiment: cell-based or functional assay; remark: listed apart in the source

IC50 as a function of CA28 concentration, classical complement inhibition assay (C3b deposition ELISA, human plasma) [1]: 1.93 µM
B1: (CA28-AEEAc)8-PEG40k (peptide)
peptide: ICVWQDWGAHRCTK
modifications: N-terminal acetyl; 1-methyl-tryptophan at position 4; disulfide Cys2-Cys12; AEEAc spacer between Thr13 and Lys; Lys side chain coupled to one arm of an eight-arm 40 kD PEG (SUNBRIGHT HGEO-400GS); C-terminal amide

% Parent, Q1 (Type III cells with C3d deposition), modified Ham's assay, CA28-2GS-BF 50 ug/ml [2]: 0.01%
% Parent, Q2 (Type I and II cells with C3d deposition), modified Ham's assay, CA28-2GS-BF 50 ug/ml [2]: 0.01%
% Parent, Q3 (Type III cells without significant C3d deposition), modified Ham's assay, CA28-2GS-BF 50 ug/ml [2]: 61.5%
% Parent, Q4 (Type I and II cells without significant C3d deposition), modified Ham's assay, CA28-2GS-BF 50 ug/ml [2]: 38.5%
B2: CA28-2GS-BF (peptide)
peptide: ICVWQDWGAHRCTK
modifications: N-terminal acetyl; 1-methyl-tryptophan at position 4; disulfide Cys2-Cys12; AEEAc spacer between Thr13 and Lys; Lys side chain coupled to one end of a bifunctional linear 40 kD PEG of the GS type (glutaryl; amide and ester linkage); C-terminal amide
